Data taken from doi:10.64898/2025.12.03.692196v2.
Changes are numbered by the printed parent chain. Numbers in names are those of the source.

Assays:
[1] = substrate: Nc1ncnc2c1ncn2[C@@H]1O[C@H](COP(=O)(O)OP(=O)(O)OP(=O)(O)O)[C@@H](O)[C@H]1O; test: purified protein, by the assay type
[2] = substrate: C[C@@H](O)[C@H](N)C(=O)O; test: LC-MS of AMP formed from TC-AMP, Michaelis-Menten; type: biochemical, Homo sapiens; settings: 250 µM ATP, 50 mM NaHCO3, 10 mM MgCl2, Tricine pH 8.5, 37 °C

B1: YRDCWT (human YRDC, ΔN43) T89A (Homo sapiens; T89A) (protein)
chain: MSPARRCRGMRAAVAASVGLSEGPAGSRSGRLFRPPSPAPAAPGARLLRLPGSGAVQAASPERAGWTEALRAAVAELRAGAVVAVPTDALYGLACAASCSAALRAVYRLKGRSEAKPLAVCLGRVADVYRYCRVRVPEGLLKDLLPGPVTLVMERSEELNKDLNPFTPLVGIRIPDHAFMQDLAQMFEGPLALTSANLSSQASSLNVEEFQDLWPQLSLVIDGGQIGDGQSPECRLGSTVVDLSVPGKFGIIRPGCALESTTAILQQKYGLLPSHASYL
[1]
  Km: 230.7 ± 217.6 µM
  kcat: 0.02 ± 0.001 s⁻¹
  kcat/Km: 90 ± 80 M⁻¹ s⁻¹

B2: YRDCS195A (Homo sapiens; S238A) (protein)
chain: B1 chain with A89T, S238A
[1]
  Km: 711.8 ± 175.5 µM
  kcat: 0.005 ± 0.0009 s⁻¹
  kcat/Km: 7 ± 2 M⁻¹ s⁻¹

B3: YRDCWT (human YRDC, ΔN43) (Homo sapiens; R253K) (protein)
chain: GARLLRLPGSGAVQAASPERAGWTEALRAAVAELRAGAVVAVPTDTLYGLACAASCSAALRAVYRLKGRSEAKPLAVCLGRVADVYRYCRVRVPEGLLKDLLPGPVTLVMERSEELNKDLNPFTPLVGIRIPDHAFMQDLAQMFEGPLALTSANLSSQASSLNVEEFQDLWPQLSLVIDGGQIGDGQSPECRLGSTVVDLSVPGKFGIIKPGCALESTTAILQQKYGLLPSHASYL
[1]
  Km: 737.5 ± 521.2 µM
  kcat: 0.005 ± 0.003 s⁻¹
  kcat/Km: 7 ± 6 M⁻¹ s⁻¹

B4: YRDCWT (human YRDC, ΔN43) (Homo sapiens) (protein)
chain: B3 chain with K210R
[2]
  Km: 7.8 mM
